Experimental data from PMC7473641, “The C-terminal helix of BubR1 is essential for CENP-E-dependent chromosome alignment” (Journal of Cell Science, 2020).
One block for each binder: values may come before it.

B3: BubR1_(705–1050), pseudokinase domain of BubR1 (domain or fragment, human, UniProt O60566 705-1050, looked up)
chain: EKLELTNETSENPTQSPWCSQYRRQLLKSLPELSASAELCIEDRPMPKLEIEKEIELGNEDYCIKREYLICEDYKLFWVAPRNSAELTVIKVSSQPVPWDFYINLKLKERLNEDFDHFCSCYQYQDGCIVWHQYINCFTLQDLLQHSEYITHEITVLIIYNLLTIVEMLHKAEIVHGDLSPRCLILRNRIHDPYDCNKNNQALKIVDFSYSVDLRVQLDVFTLSGFRTVQILEGQKILANCSSPYQVDLFGIADLAHLLLFKEHLQVFWDGSFWKLSQNISELKDGELWNKFFVRILNANDEATVSVLGELAAEMNGVFDTTFQSHLNKALWKVGKLTSPGALLFQ
notes: source: E. coli BL21-CodonPlus (DE3)-RIL (overnight at 18°C), purified (HisTrap, 3C protease, SEC); not shown: His6, N-terminal, cleaved
B4: CENP-E_(2091–2358)–GST (domain or fragment, human, UniProt Q02224-1 2091-2358, looked up)
chain: ESLREKCSRIKELLKRYSEMDDHYECLNRLSLDLEKEIEFQKELSMRVKANLSLPYLQTKHIEKLFTANQRCSMEFHRIMKKLKYVLSYVTKIKEEQHESINKFEMDFIDEVEKQKELLIKIQHLQQDCDVPSRELRDLKLNQNMDLHIEEILKDFSESEFPSIKTEFQQVLSNRKEMTQFLEEWLNTRFDIEKLKNGIQKENDRICQVNNFFNNRIIAIMNESTEFEERSATISKEWEQDLKSLKEKNEKLFKNYQTLKTSLASGAQ
notes: no own measurement; not shown: GST, C-terminal, kept

How the values were obtained:
[1] = biological target: the molecule itself; assay: SEC-MALS; 100 µl at 1 mg/ml on Superdex-200 10/300 GL Increase, 22°C, gel filtration buffer (20 mM HEPES pH 7.5, 300 mM NaCl, or 500 mM for CENP-E 2055-2608, 1 mM EDTA, 1 mM DTT)
[2] = biological target: T1, BubR1_(432–1050), C terminus of BubR1 containing the pseudokinase domain (human, UniProt O60566 432-1050); assay: SEC; co-elution on Superdex Increase 200 10/300 GL in binding buffer (20 mM HEPES pH 7.5, 150 mM NaCl, 1 mM EDTA, 1 mM DTT); proteins mixed in equimolar ratio at ~7 µM; fractions on Coomassie gels; conditions: both partners purified
T1 construct: source: purified recombinant

[3] = biological target: B3; assay: as above; conditions: both partners purified
CENP-E_(2091–2358)–GST = biological target: B4; assay: ITC; 276 µM BubR1 705-1050 titrated into 25 µM CENP-E 2091-2358-GST at 37°C; 20 mM HEPES pH 7.5, 150 mM NaCl, 1 mM EDTA, 0.005% Tween-20, 0.5 mM TCEP; one set of sites; conditions: both partners purified
[4] = biological target: B3; assay: as above; conditions: both partners purified

binding result [2]: binds
B1: CENP-E_(2055–2608), kinetochore- and centrosome-targeting domain of CENP-E (domain or fragment, human, UniProt Q02224-1 2055-2608, looked up)
chain: RDQFIATLREMIARDRQNHQVKPEKRLLSDGQQHLTESLREKCSRIKELLKRYSEMDDHYECLNRLSLDLEKEIEFQKELSMRVKANLSLPYLQTKHIEKLFTANQRCSMEFHRIMKKLKYVLSYVTKIKEEQHESINKFEMDFIDEVEKQKELLIKIQHLQQDCDVPSRELRDLKLNQNMDLHIEEILKDFSESEFPSIKTEFQQVLSNRKEMTQFLEEWLNTRFDIEKLKNGIQKENDRICQVNNFFNNRIIAIMNESTEFEERSATISKEWEQDLKSLKEKNEKLFKNYQTLKTSLASGAQVNPTTQDNKNPHVTSRATQLTTEKIRELENSLHEAKESAMHKESKIIKMQKELEVTNDIIAKLQAKVHESNKCLEKTKETIQVLQDKVALGAKPYKEEIEDLKMKLVKIDLEKMKNAKEFEKEISATKATVEYQKEVIRLLRENLRRSQQAQDTSVISEHTDPQPSNKPLTCGGGSGIVQNTKALILKSEHIRLEKEISKLKQQNEQLIKQKNELLSNNQHLSNEVKTWKERTLKREAHKQVTCENSPKS
notes: Dimer by SEC-MALS; Aggregated in 150 mM NaCl and was kept in 500 mM NaCl; Cloned in pET-3aTr; also called longer dimeric kinetochore-targeting domain; source: E. coli BL21-CodonPlus (DE3)-RIL, purified (HisTrap, Superdex 200 in 500 mM NaCl)
stoichiometry N [1]: 2

binding result [3]: binds
B2: CENP-E_(2055–2358), minimal kinetochore-targeting domain of CENP-E (domain or fragment, human, UniProt Q02224-1 2055-2358, looked up)
chain: RDQFIATLREMIARDRQNHQVKPEKRLLSDGQQHLTESLREKCSRIKELLKRYSEMDDHYECLNRLSLDLEKEIEFQKELSMRVKANLSLPYLQTKHIEKLFTANQRCSMEFHRIMKKLKYVLSYVTKIKEEQHESINKFEMDFIDEVEKQKELLIKIQHLQQDCDVPSRELRDLKLNQNMDLHIEEILKDFSESEFPSIKTEFQQVLSNRKEMTQFLEEWLNTRFDIEKLKNGIQKENDRICQVNNFFNNRIIAIMNESTEFEERSATISKEWEQDLKSLKEKNEKLFKNYQTLKTSLASGAQ
notes: Monomer by SEC-MALS; source: E. coli BL21-CodonPlus (DE3)-RIL, purified (HisTrap, Superdex 200)

Binder: B3
dH (CENP-E_(2091–2358)–GST): -5.1 kcal/mol | stoichiometry N (CENP-E_(2091–2358)–GST): 0.908

Binder: B4
Kd [4]: 318 nM

binding result [3]: binds
B5: CENP-E_(2069–2358)–GST (domain or fragment, human, UniProt Q02224-1 2069-2358, looked up)
chain: DRQNHQVKPEKRLLSDGQQHLTESLREKCSRIKELLKRYSEMDDHYECLNRLSLDLEKEIEFQKELSMRVKANLSLPYLQTKHIEKLFTANQRCSMEFHRIMKKLKYVLSYVTKIKEEQHESINKFEMDFIDEVEKQKELLIKIQHLQQDCDVPSRELRDLKLNQNMDLHIEEILKDFSESEFPSIKTEFQQVLSNRKEMTQFLEEWLNTRFDIEKLKNGIQKENDRICQVNNFFNNRIIAIMNESTEFEERSATISKEWEQDLKSLKEKNEKLFKNYQTLKTSLASGAQ
notes: no own measurement of the oligomeric state; source: E. coli BL21-CodonPlus (DE3)-RIL, purified; not shown: GST, C-terminal, kept
